According to ChEMBL document CHEMBL1143079, “Designing better coumarin-based fluorogenic substrates for PTP1B” (Bioorg Med Chem Lett, 2008):

Legend:
[1] = substrate: O=C(Cc1cc(=O)oc2cc(OP(=O)(O)O)ccc12)OCc1ccccc1
[2] = substrate: NC(=O)Cc1cc(=O)oc2cc(OP(=O)(O)O)ccc12
[3] = substrate: O=C(O)CCNC(=O)Cc1cc(=O)oc2cc(OP(=O)(O)O)ccc12
[4] = substrate: O=C(Cc1cc(=O)oc2cc(OP(=O)(O)O)ccc12)NCc1ccc(OP(=O)(O)O)cc1
[5] = substrate: COC(=O)Cc1cc(=O)oc2cc(OP(=O)(O)O)ccc12
[6] = substrate: NC(=O)[C@H](Cc1ccc(OP(=O)(O)O)cc1)NC(=O)Cc1cc(=O)oc2cc(OP(=O)(O)O)ccc12
[7] = substrate: O=C(Cc1cc(=O)oc2cc(OP(=O)(O)O)ccc12)NCCc1ccc(OP(=O)(O)O)cc1
[8] = substrate: COC(=O)[C@H](Cc1ccc(OP(=O)(O)O)cc1)NC(=O)Cc1cc(=O)oc2cc(OP(=O)(O)O)ccc12
[9] = substrate: O=C(Cc1cc(=O)oc2cc(OP(=O)(O)O)ccc12)NCCc1ccc(O)cc1

B1: Tyrosine-protein phosphatase non-receptor type 1 (Homo sapiens), P18031 (protein)
chain: MEMEKEFEQIDKSGSWAAIYQDIRHEASDFPCRVAKLPKNKNRNRYRDVSPFDHSRIKLHQEDNDYINASLIKMEEAQRSYILTQGPLPNTCGHFWEMVWEQKSRGVVMLNRVMEKGSLKCAQYWPQKEEKEMIFEDTNLKLTLISEDIKSYYTVRQLELENLTTQETREILHFHYTTWPDFGVPESPASFLNFLFKVRESGSLSPEHGPVVVHCSAGIGRSGTFCLADTCLLLMDKRKDPSSVDIKKVLLEMRKFRMGLIQTADQLRFSYLAVIEGAKFIMGDSSVQDQWKELSHEDLEPPPEHIPPPPRPPKRILEPHNGKCREFFPNHQWVKEETQEDKDCPIKEEKGSPLNAAPYGIESMSQDTEVRSRVVGGSLRGAQAASPAKGEPSLPEKDEDHALSYWKPFLVNMCVATVLTAGAYLCYRFLFNSNT
Km [1]: 36 µM
kcat [1]: 10.5 s⁻¹
Km [2]: 224 µM
kcat [2]: 5 s⁻¹
Km [3]: 111 µM
kcat [3]: 5.8 s⁻¹
Km [4]: 25 µM
kcat [4]: 5.2 s⁻¹
Km [5]: 147 µM
kcat [5]: 8.2 s⁻¹
Km [6]: 149 µM
kcat [6]: 3.2 s⁻¹
Km [7]: 38 µM
kcat [7]: 7.1 s⁻¹
Km [8]: 82 µM
kcat [8]: 3.4 s⁻¹
kcat [9]: 4.8 s⁻¹
